Measured values: patent publication US20110098217A1 (INDIANA UNIVERSITY RESEARCH AND TECHNOLOGY, published 2011)
Where “and” joins values, the source holds several entries; their conditions need not be identical. Identical values can stand only once. Like-named read-outs stand apart in the source and are kept apart here. Bridge positions count the residues as written; N and C are the ends. Square brackets hold non-standard residues; d marks the D form. Ends that are not written are not given here. PhLac = O=C(O)[C@@H](O)Cc1ccccc1

Assays:
[1] = target: T1, human glucagon receptor (human, UniProt P47871 26-477); assay: cell-based or functional assay
[2] = target: T2, human GLP-1 receptor (human, UniProt P43220 24-463); assay: cell-based or functional assay
Target sequence in this assay (P43220 24-463): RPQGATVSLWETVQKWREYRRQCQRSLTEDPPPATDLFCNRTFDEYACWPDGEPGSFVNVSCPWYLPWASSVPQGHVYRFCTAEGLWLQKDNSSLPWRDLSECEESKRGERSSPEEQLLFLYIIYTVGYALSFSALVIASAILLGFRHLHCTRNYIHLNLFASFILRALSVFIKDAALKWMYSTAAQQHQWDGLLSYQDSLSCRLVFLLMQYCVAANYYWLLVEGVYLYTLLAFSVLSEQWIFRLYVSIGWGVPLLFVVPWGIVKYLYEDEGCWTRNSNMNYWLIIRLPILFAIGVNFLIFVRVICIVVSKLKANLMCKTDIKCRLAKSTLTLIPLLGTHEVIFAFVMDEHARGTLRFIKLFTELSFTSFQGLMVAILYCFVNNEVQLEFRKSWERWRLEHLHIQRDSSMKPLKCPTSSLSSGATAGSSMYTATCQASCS

[3] = target: T1, human glucagon receptor; assay: cell-based or functional assay; remark: listed apart in the source
[4] = target: T1, human glucagon receptor; assay: cell-based or functional assay; remark: listed apart in the source
[5] = target: T1, human glucagon receptor; assay: SPA competition vs 125I-glucagon, receptor membranes
[6] = target: T1, human glucagon receptor; assay: cell-based or functional assay; remark: listed apart in the source
[7] = target: T1, human glucagon receptor; assay: SPA competition vs 125I-glucagon, receptor membranes; remark: listed apart in the source
[8] = target: T1, human glucagon receptor; assay: as above; remark: listed apart in the source
[9] = target: T1, human glucagon receptor; assay: cell-based or functional assay; remark: listed apart in the source
[10] = target: T1, human glucagon receptor; assay: SPA competition vs 125I-glucagon, receptor membranes; remark: listed apart in the source
[11] = target: T1, human glucagon receptor; assay: cell-based or functional assay; remark: listed apart in the source
[12] = target: T2, human GLP-1 receptor; assay: cell-based or functional assay; remark: listed apart in the source
[13] = target: T1, human glucagon receptor; assay: cell-based or functional assay; remark: listed apart in the source
[14] = target: T2, human GLP-1 receptor; assay: cell-based or functional assay; remark: listed apart in the source
[15] = target: T1, human glucagon receptor; assay: cell-based or functional assay; remark: listed apart in the source
[16] = target: T2, human GLP-1 receptor; assay: cell-based or functional assay; remark: listed apart in the source
[17] = target: T1, human glucagon receptor; assay: cell-based or functional assay; remark: listed apart in the source
[18] = target: T2, human GLP-1 receptor; assay: cell-based or functional assay; remark: listed apart in the source
[19] = target: T1, human glucagon receptor; assay: cell-based or functional assay; remark: listed apart in the source
[20] = target: T2, human GLP-1 receptor; assay: cell-based or functional assay; remark: listed apart in the source
[21] = target: T1, human glucagon receptor; assay: cell-based or functional assay; remark: listed apart in the source
[22] = target: T2, human GLP-1 receptor; assay: cell-based or functional assay; remark: listed apart in the source
[23] = target: T1, human glucagon receptor; assay: cell-based or functional assay; remark: listed apart in the source
[24] = target: T2, human GLP-1 receptor; assay: cell-based or functional assay; remark: listed apart in the source
[25] = target: human glucagon receptor (human) (UniProt P47871); assay: cell-based or functional assay
[26] = target: human glucagon receptor (human) (UniProt P47871); assay: cell-based or functional assay; remark: listed apart in the source
[27] = target: human GLP-1 receptor (human) (UniProt P43220); assay: cell-based or functional assay
[28] = target: human GLP-1 receptor (human) (UniProt P43220); assay: cell-based or functional assay; remark: listed apart in the source
[29] = target: T1, human glucagon receptor; assay: cell-based or functional assay; remark: listed apart in the source
[30] = target: T2, human GLP-1 receptor; assay: cell-based or functional assay; remark: listed apart in the source
[31] = target: T1, human glucagon receptor; assay: cell-based or functional assay; remark: listed apart in the source
[32] = target: T2, human GLP-1 receptor; assay: cell-based or functional assay; remark: listed apart in the source
[33] = target: T1, human glucagon receptor; assay: cell-based or functional assay; remark: listed apart in the source
[34] = target: T2, human GLP-1 receptor; assay: cell-based or functional assay; remark: listed apart in the source
[35] = target: T2, human GLP-1 receptor; assay: cell-based or functional assay; remark: listed apart in the source
[36] = target: T1, human glucagon receptor; assay: cell-based or functional assay; remark: listed apart in the source
[37] = target: T2, human GLP-1 receptor; assay: cell-based or functional assay; remark: listed apart in the source
[38] = target: T1, human glucagon receptor; assay: cell-based or functional assay; remark: listed apart in the source
[39] = target: T1, human glucagon receptor; assay: SPA competition vs 125I-glucagon, receptor membranes; remark: listed apart in the source
[40] = target: T1, human glucagon receptor; assay: as above; remark: listed apart in the source

T1 sequence (P47871 26-477): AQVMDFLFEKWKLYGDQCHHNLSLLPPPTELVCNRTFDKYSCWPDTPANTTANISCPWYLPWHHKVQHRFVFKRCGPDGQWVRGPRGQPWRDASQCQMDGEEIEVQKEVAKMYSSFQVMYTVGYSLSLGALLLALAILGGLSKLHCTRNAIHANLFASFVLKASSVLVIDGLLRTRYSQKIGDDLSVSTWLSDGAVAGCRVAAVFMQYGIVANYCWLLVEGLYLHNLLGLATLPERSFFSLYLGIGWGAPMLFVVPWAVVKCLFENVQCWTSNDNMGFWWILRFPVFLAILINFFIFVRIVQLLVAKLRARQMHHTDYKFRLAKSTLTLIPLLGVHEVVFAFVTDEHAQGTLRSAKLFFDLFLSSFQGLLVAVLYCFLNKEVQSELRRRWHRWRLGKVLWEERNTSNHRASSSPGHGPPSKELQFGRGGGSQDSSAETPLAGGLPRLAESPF
Sequence of human glucagon receptor (human) (P47871 26-477): as above
Sequence of human GLP-1 receptor (human) (P43220 24-463): as the sequence (P43220 24-463) above

“[PLA6, E9, K12E16(Lactam)] glucagon(6-39) (peptide)” gave a Glu IC50 [1] of 72 nM, a Glucagon IC50 [1] of 72 nM and a GLP-1 EC50 [2] of 6 nM.

For GTFTSEYSKYLDSRRAQDFVQWLMNT-NH2 (also called peptide no) [[Glu^9]Glucagon(aa4-29)-NH2], the “cAMP Inhibition IC50” value [3] was 128 nM and the “cAMP pA2” value [4] was 7.05.

B1: [Glu^9]Glucagon(aa6-29)-NH2 (peptide)
peptide: FTSEYSKYLDSRRAQDFVQWLMNT-NH2
notes: also called [E^9]Glucagon(aa6-29)-NH2; peptide no; 11
B1 was tested, and the IC50 [5] was 36.4 nM, the “cAMP IC50” value [6] was 97.2 nM and the “cAMP pA2” value [6] was 7.16. The IC50 [7] was 36 nM, the IC50 [8] was 36.4 nM and the “cAMP Inhibition IC50” value [3] was 97 nM. For the same molecule, the “cAMP (I/A)50 inhibition index” value [4] was 486 and the “cAMP pA2” value [4] was 7.16.

B2: [PLA^6, D^9, D^28] Glucagon(aa6-29)-NH2 (peptide)
peptide: FTSDYSKYLDSRRAQDFVQWLMDT
modifications: PLA at position 6; C-terminal amide
notes: also called [PLA6, D9, D28]Glucagon(6-29)
With B2 the “Glucagon antagonism IC50 (inhibit 0.5nM G)” value [9] was 9.03 nM, the IC50 [10] was 9 nM and the “IC50 (cAMP, inhibit 0.1 nM Glucagon)” value [11] was 1.32 nM.

In the case of SQGTXTSEYSKYLDSRRAQDFVQWLMNT (depsipeptide bond between Thr5 and PLA6; C-terminal amide) [[Thr5-O-PLA6,E9]Glucagon(2-29)], the “Glucagon antagonism IC50 (inhibit 0.5nM G)” value [9] is reported as 6.49 nM and the “GLP-1 agonism EC50” value [12] is reported as 1310 nM.

B3: [PLA6, K12E16(lactam), D28]G(6-29) (peptide)
peptide: [PhLac]TSDYSKYLDERRAQDFVQWLMDT-NH2
modifications: lactam 7-11; N-terminus assumed
SMILES: CSCC[C@H](NC(=O)[C@H](CC(C)C)NC(=O)[C@H](Cc1c[nH]c2ccccc12)NC(=O)[C@H](CCC(N)=O)NC(=O)[C@@H](NC(=O)[C@H](Cc1ccccc1)NC(=O)[C@H](CC(=O)O)NC(=O)[C@H](CCC(N)=O)NC(=O)[C@H](C)NC(=O)[C@H](CCCNC(=N)N)NC(=O)[C@H](CCCNC(=N)N)NC(=O)[C@@H]1CCC(=O)NCCCC[C@H](NC(=O)[C@H](CO)NC(=O)[C@H](Cc2ccc(O)cc2)NC(=O)[C@H](CC(=O)O)NC(=O)[C@H](CO)NC(=O)[C@@H](NC(=O)[C@@H](O)Cc2ccccc2)[C@@H](C)O)C(=O)N[C@@H](Cc2ccc(O)cc2)C(=O)N[C@@H](CC(C)C)C(=O)N[C@@H](CC(=O)O)C(=O)N1)C(C)C)C(=O)N[C@@H](CC(=O)O)C(=O)N[C@H](C(N)=O)[C@@H](C)O
With B3 the “Glucagon IC50” value [13] was 63 nM, the “GLP-1 EC50” value [14] was 177 nM and the “Glucagon antagonism IC50 (inhibit 0.2-0.8 nM glucagon)” value [15] was 58.3 nM. For the same molecule, the “GLP-1 agonism EC50” value [16] was 38.5 nM, the “Glucagon antagonism IC50 (inhibit 0.2-0.8 nM glucagon)” value [17] was 58.3 nM and the “GLP-1 agonism EC50” value [18] was 38.5 nM. For the same molecule, the “Glucagon antagonism IC50 (inhibit 0.2-0.8 nM glucagon)” value [19] was 58.3 nM, the “GLP-1 agonism EC50” value [20] was 38.5 nM and the “Glucagon IC50” value [21] was 13 nM. For the same molecule, the “GLP-1 EC50” value [22] was 21 nM.

For HSQGTFTSDYSRYLDSRRAQDFVQWLMNK [Glucagon R12 K29], the “cAMP Induction EC50” value [23] was 0.81 nM and the “cAMP Induction EC50” value [24] was 0.41 nM.

Molecule FTSEYSKYLDERRAQDFVQWLMNTGPSSGAPPPS (C-terminal amide) [[E9, E16]G(6-39)] has a Glucagon IC50 [25] of 762 nM, a Glu IC50 [26] of 762 nM and a Glucagon antagonism IC50 (inhibit 0.2-0.8 nM glucagon) [26] of 762 nM.

In the case of FTSEYSKYLDERRAQDFVQWLMNTGPSSGAPPPS (lactam bridge Lys12-Glu16 (native glucagon numbering); C-terminal amide) [E9, K12E16(lactam) glucagon(6-39)], the Glucagon IC50 [25] is reported as 2010 nM, the Glu IC50 [26] is reported as 2010 nM and the GLP-1 EC50 [27] is reported as 63 nM.

For FTSDYSKYLDERRAQDFVQWLMNTGPSSGAPPPS (lactam bridge Lys12-Glu16; C-terminal amide) [D9, K12E16(Lactam) glucagon(6-39)], the Glucagon IC50 [25] was 828 nM, the GLP-1 EC50 [28] was 18 nM and the Glu IC50 [26] was 828 nM. For the same molecule, the GLP-1 EC50 [27] was 119 nM.

With [PhLac]TSDYSKYLDERRAKDFVQWLMDT-NH2 (lactam 11-15) [[PLA6, E16K20(lactam), D28]G(6-29)] the “Glucagon antagonism IC50 (inhibit 0.2-0.8 nM glucagon)” value [15] was 11.7 nM and 5.5 nM, the “GLP-1 agonism EC50” value [16] was 6.9 nM and 4.2 nM and the “Glucagon antagonism IC50 (inhibit 0.2-0.8 nM glucagon)” value [17] was 11.7 nM and 5.5 nM. The “GLP-1 agonism EC50” value [18] was 6.9 nM and 4.2 nM, the “Glucagon antagonism IC50 (inhibit 0.8 nM glucagon)” value [29] was 13.7 nM and the “GLP-1 agonism EC50” value [30] was 10.6 nM. For the same molecule, the “Glucagon antagonism IC50 (inhibit 0.8 nM glucagon)” value [31] was 13.7 nM, the “GLP-1 agonism EC50” value [32] was 10.6 nM and the “Glucagon antagonism IC50 (inhibit 0.8 nM glucagon)” value [33] was 20.3 nM. The “GLP-1 agonism EC50” value [34] was 18.2 nM, the “GLP-1 agonism EC50” value [35] was 20.7 nM and the “Glucagon antagonism IC50 (inhibit 0.4 nM glucagon)” value [36] was 4.14 nM and 7.99 nM. For the same molecule, the “GLP-1 agonism EC50” value [37] was 48 nM, the “Glucagon IC50” value [21] was 6 nM and the “GLP-1 EC50” value [22] was 4 nM.

B4: [PLA^6, E^9]Glucagon(aa6-29)-NH2 (peptide)
peptide: [PhLac]TSEYSKYLDSRRAQDFVQWLMNT-NH2
notes: also called [PLA6, E9]; G(6-29); [PLA6, E9]Glucagon(6-29)
In the case of B4, the “Glucagon antagonism IC50 (inhibit 0.5nM G)” value [9] is reported as 23.8 nM, the IC50 [10] is reported as 12.3 nM and the “Glucagon antagonism IC50 (inhibit 0.8 nM glucagon)” value [33] is reported as 94.7 nM. The “GLP-1 agonism EC50” value [34] was 901 nM, the “IC50 (cAMP, inhibit 0.8 mM Glucagon)” value [38] was 64.8 nM and the IC50 [39] was 12.3 nM. The “fold increase of affinity relative to the native Phe6 analog” value [40] was 3 fold, the “IC50 (cAMP, inhibit 0.1 nM Glucagon)” value [11] was 2.39 nM and the “IC50 (cAMP, inhibit 0.2 nM Glucagon)” value [11] was 42.4 nM.
